Data reported in patent publication US20260218140.

Target: T1, 5-270 TNA polymerase (synthetic construct (chimera of Thermococcus/Pyrococcus B-family polymerases)) (UniProt P56689)
T1 sequence: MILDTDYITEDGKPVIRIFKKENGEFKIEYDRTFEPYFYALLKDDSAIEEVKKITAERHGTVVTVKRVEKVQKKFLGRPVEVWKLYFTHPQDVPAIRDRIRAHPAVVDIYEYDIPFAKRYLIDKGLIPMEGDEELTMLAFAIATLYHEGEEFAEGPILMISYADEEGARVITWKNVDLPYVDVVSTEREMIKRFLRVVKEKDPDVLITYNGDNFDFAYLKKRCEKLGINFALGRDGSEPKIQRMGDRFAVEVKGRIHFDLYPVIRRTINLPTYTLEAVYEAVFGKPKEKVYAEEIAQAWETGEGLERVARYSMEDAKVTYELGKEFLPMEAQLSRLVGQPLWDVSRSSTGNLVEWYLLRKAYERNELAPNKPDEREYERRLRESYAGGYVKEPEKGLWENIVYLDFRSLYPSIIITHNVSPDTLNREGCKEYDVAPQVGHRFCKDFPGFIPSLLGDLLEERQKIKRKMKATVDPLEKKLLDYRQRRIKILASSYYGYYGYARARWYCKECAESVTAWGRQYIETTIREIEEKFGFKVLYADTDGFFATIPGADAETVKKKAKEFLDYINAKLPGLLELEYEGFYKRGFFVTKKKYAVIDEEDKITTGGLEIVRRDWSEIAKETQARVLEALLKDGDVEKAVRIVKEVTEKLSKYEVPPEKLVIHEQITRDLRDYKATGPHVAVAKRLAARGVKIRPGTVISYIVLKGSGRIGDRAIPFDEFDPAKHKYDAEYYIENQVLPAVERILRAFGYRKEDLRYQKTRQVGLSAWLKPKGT
Conditions: TNA primer extension; ~2-fold figure is from text on the clone screen

“GTCCCCTTGGGGATACCACC / TCGTTCTCGGACGGAGAGATATTGAANGGTGGTATCCCCAAGGGGAC [PBS8 primer / L30.5 random library template]” gave a binding signal (fold vs Kod-RSGA) of 2.
